# Changes are numbered by the printed parent chain.
# B1: MaptH1.1 N19-48 (ssDNA)
# DNA: GGGCACGGGTCAGGCGGTTATACGGTGCCC
# B2: MaptH1.1 N13-48 (MaptH1.1CSO) (ssDNA)
# DNA: CAGGTCTCGGGCACGGGTCAGGCGGTTATACGGTGCCC
# B3: MaptH1.1 (ssDNA)
# DNA: GGGTCAATGCCAGGTCTCGGGCACGGGTCAGGCGGTTATACGGTGCCCATTGTTCTTTATCGGCTCGCAAGCAGTC
# B4: MaptH1.1 N19-53 (ssDNA)
# DNA: GGGCACGGGTCAGGCGGTTATACGGTGCCCATTGT
# B5: FAM1-10 (ssDNA)
# DNA: GGGTCAATGCCAGGTCTCTGGGGGAGGGAGGGTCTGGGGGTTATACGTCACTAGCAAAATCGGCTCGCAAGCAGTC
# B6: FAM1-11 (ssDNA)
# DNA: GGGTCAATGCCAGGTCTCGGGGCAGGCGGTTATACGGAGAGCTTCTTACATGGGCCCTATCGGCTCGCAAGCAGTC
# B7: IND1 (ssDNA)
# DNA: GGGTCAATGCCAGGTCTCGGTGGGAGGTGAGGTCGTTGGACGGTGGCAGGGGATTTTGATCGGCTCGCAAGCAGTC
# B8: FAM2-4 (ssDNA)
# DNA: GGGTCAATGCCAGGTCTCCCGGTTACCAGTTGGTGTTTGTGGCTTTGCACGTCTGCATATCGGCTCGCAAGCAGTC
# B9: FAM1-9 (ssDNA)
# DNA: GGGTCAATGCCAGGTCTCGGGGTGCGAGGGTCTGGTGGTTATACGTCGTCACCTCTAGATCGGCTCGCAAGCAGTC
# B10: FAM1-8 (ssDNA)
# DNA: GGGTCAATGCCAGGTCTCAATCAGAAGGGTCTGGTGGTTATACGTTCATGTATTGGGTATCGGCTCGCAAGCAGTC
# B11: FAM1-12 (ssDNA)
# DNA: GGGTCAATGCCAGGTCTCACCGGGTCAGGCGGTTATACGGGTGAGGGCAGGTACATACATCGGCTCGCAAGCAGTC
# B12: FAM1-13 (ssDNA)
# DNA: B11 DNA with A44G
# B13: FAM2-3 (ssDNA)
# DNA: GGGTCAATGCCAGGTCTCCCGGTTACCTCCATTGGTGGTGTTAGTGGCTTTGTAGGATATCGGCTCGCAAGCAGTC
# B14: FAM2-2 (ssDNA)
# DNA: GGGTCAATGCCAGGTCTCCCGGTTACTGCCGTAGTTGTCTTACGGTGGTGTTAGTGGCATCGGCTCGCAAGCAGTC
# B15: FAM1-3 (ssDNA)
# DNA: GGGTCAATGCCAGGTCTCGGACCGCGATGGAGAGGGGTCTGGTGGTTATACGCTATGCATCGGCTCGCAAGCAGTC
# B16: FAM1-4 (ssDNA)
# DNA: B15 DNA with A21G
# B17: FAM1-6 (ssDNA)
# DNA: GGGTCAATGCCAGGTCTCGAGGAACGTGGGGTCAGGTGGTTATACGCAGGGTACCGGGATCGGCTCGCAAGCAGTC
# B18: FAM3 (ssDNA)
# DNA: GGGTCAATGCCAGGTCTCTGAGGCGCAGATGTGGAGGCTTTTACAGGCGGTGCGGAACATCGGCTCGCAAGCAGTC
# B19: FAM2-1 (ssDNA)
# DNA: GGGTCAATGCCAGGTCTCCCGGTTACCGCGCTAAGCTTGGCGATGGTGTTAGTGGCTGATCGGCTCGCAAGCAGTC
# B20: FAM1-7 (ssDNA)
# DNA: GGGTCAATGCCAGGTCTCGGGGGGCCGGTTATACGGGTCAGGCGGTTATACGGTATTCATCGGCTCGCAAGCAGTC
# B21: FAM2-5 (ssDNA)
# DNA: GGGTCAATGCCAGGTCTCCCGGTTACCAACTATGATAGTATGGTGTTTGTGGCATGATCGGCTCGCAAGCAGTC
# B22: FAM2-6 (ssDNA)
# DNA: GGGTCAATGCCAGGTCTCCCGGTTACCATCGAGGACGTCGCTTGGTGTTTGTGGCATGATCGGCTCGCAAGCAGTC
# B23: FAM1-5 (ssDNA)
# DNA: GGGTCAATGCCAGGTCTCGCAGAGGTGCGAGGGGCGGTGGGGTCTGGTGGTTATACGCATCGGCTCGCAAGCAGTC
# B24: FAM2-7 (ssDNA)
# DNA: GGGTCAATGCCAGGTCTCCCGGTTACCAAGATCGTTGTTCTTGGTGTTAGTGGCATTCATCGGCTCGCAAGCAGTC
# B25: FAM4 (ssDNA)
# DNA: GGGTCAATGCCAGGTCTCCAAAGGGGGGGGTTGGGGGACCGTCCGTTGTTGATCTCACATCGGCTCGCAAGCAGTC
# B26: MaptH1.1 N19-58 (ssDNA)
# DNA: GGGCACGGGTCAGGCGGTTATACGGTGCCCATTGTTCTTT
# Target: T1, Factor H (complement factor H), plasma (Homo sapiens, UniProt P08603 P08603:19-1231)
# Experiment: SPR; rank 4 of 5 truncations; 50 mM NaCl, 50 mM MgCl2, pH 7.5
# Settings: tags: LFB preparation (Biacore, amine-coupled NHS/EDC on CM5 chip, 5813 RU); Calbiochem 341274 also used in SELEX
# T1 sequence (P08603 19-1231, one chain of several): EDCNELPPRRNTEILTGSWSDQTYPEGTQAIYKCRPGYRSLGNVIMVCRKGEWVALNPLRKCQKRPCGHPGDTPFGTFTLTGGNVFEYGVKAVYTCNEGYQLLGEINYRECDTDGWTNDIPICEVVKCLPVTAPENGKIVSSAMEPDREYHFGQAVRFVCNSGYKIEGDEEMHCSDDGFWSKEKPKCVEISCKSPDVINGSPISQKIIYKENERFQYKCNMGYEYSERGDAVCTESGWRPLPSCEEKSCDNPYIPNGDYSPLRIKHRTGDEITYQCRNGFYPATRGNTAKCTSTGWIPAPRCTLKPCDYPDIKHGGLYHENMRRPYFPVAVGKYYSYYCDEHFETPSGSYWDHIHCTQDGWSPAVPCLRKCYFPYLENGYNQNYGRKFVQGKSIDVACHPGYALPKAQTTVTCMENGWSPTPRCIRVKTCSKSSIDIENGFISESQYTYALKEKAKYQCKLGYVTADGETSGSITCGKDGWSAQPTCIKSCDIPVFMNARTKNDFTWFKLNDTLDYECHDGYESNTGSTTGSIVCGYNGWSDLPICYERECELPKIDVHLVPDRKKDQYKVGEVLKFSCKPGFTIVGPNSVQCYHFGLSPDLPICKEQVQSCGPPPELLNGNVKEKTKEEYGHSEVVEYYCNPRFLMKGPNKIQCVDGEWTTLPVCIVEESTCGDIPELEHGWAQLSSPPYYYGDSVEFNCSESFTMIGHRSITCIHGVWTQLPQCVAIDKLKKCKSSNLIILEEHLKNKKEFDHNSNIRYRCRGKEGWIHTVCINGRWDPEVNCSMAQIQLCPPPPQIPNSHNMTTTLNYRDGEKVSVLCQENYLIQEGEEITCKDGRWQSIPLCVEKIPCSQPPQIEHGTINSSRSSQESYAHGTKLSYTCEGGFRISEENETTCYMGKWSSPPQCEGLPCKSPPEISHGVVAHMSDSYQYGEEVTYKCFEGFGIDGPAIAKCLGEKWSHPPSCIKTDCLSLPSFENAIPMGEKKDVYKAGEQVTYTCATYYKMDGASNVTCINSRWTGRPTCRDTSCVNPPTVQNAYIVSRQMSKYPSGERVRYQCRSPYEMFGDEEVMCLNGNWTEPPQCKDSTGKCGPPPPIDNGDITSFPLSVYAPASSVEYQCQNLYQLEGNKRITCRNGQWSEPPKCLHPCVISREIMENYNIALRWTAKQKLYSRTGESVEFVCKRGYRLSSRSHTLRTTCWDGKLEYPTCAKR
row,Binder,binding result
1,B1,binds

# Target: T1, Factor H (complement factor H), plasma
# Experiment: SPR; strongest of the five truncations; 50 mM Tris, 50 mM NaCl, 50 mM MgCl2, pH 7.5; p444 calls the FH recombinant, methods say LFB FH
# Settings: tags: LFB preparation (Biacore, amine-coupled NHS/EDC on CM5 chip, 5813 RU); Calbiochem 341274 also used in SELEX
row,Binder,binding result
1,B2,binds

# Target: T1, Factor H (complement factor H), plasma
# Experiment: pulldown; affinity chromatography on aptamer-agarose; 74% of A254 retained and eluted with EDTA; 50 mM MgCl2, 50 mM NaCl, pH 7.5
# Settings: tags: LFB preparation (Biacore, amine-coupled NHS/EDC on CM5 chip, 5813 RU); Calbiochem 341274 also used in SELEX; label: biotin
# Protocol: The plasma factor H is eluted with a 50 mM Tris+500 mM EDTA buffer at pH 8.0. The elution peak is collected according to the OD profile.
row,Binder,binding result
1,B3,binds

# Target: T1, Factor H (complement factor H), plasma
# Experiment: SPR; rank 3 of 5 truncations; 50 mM NaCl, 50 mM MgCl2, pH 7.5
# Settings: tags: LFB preparation (Biacore, amine-coupled NHS/EDC on CM5 chip, 5813 RU); Calbiochem 341274 also used in SELEX
row,Binder,binding result
1,B4,binds

# Target: T1, Factor H (complement factor H), plasma
# Experiment: SPR; binding stability; 10 mM MgCl2, pH 7.5
# Settings: tags: LFB preparation (Biacore, amine-coupled NHS/EDC on CM5 chip, 5813 RU); Calbiochem 341274 also used in SELEX
row,Binder,binding signal
1,B5,73.5 RU
2,B6,16.9 RU
3,B7,20.1 RU
4,B8,27.6 RU
5,B9,57.8 RU
6,B10,36 RU
7,B11,18.2 RU
8,B12,30.6 RU
9,B13,18.2 RU
10,B14,22.4 RU
11,B15,20.9 RU
12,B16,26.2 RU
13,B17,30 RU
14,B18,11.7 RU
15,B19,29.6 RU
16,B20,15.4 RU
17,B21,22.2 RU
18,B22,22.1 RU
19,B23,21.2 RU
20,B24,22.1 RU
21,B25,25.9 RU

# Target: T1, Factor H (complement factor H), plasma
# Experiment: SPR; rank 2 of 5 truncations; 50 mM NaCl, 50 mM MgCl2, pH 7.5
# Settings: tags: LFB preparation (Biacore, amine-coupled NHS/EDC on CM5 chip, 5813 RU); Calbiochem 341274 also used in SELEX
row,Binder,binding result
1,B26,binds

# Source: patent US20140329289, “ANTI-FH APTAMERS, METHOD FOR PRODUCING SAME, AND USES THEREOF” (Laboratoire Francais du Fractionnement et des …, published 2014)
